Results published in IntAct's records for PubMed 9847329.

B1: Protein Rep68 (Adeno-associated virus 2 (isolate Srivastava/1982)), P03132 (parent)
chain: MPGFYEIVIKVPSDLDGHLPGISDSFVNWVAEKEWELPPDSDMDLNLIEQAPLTVAEKLQRDFLTEWRRVSKAPEALFFVQFEKGESYFHMHVLVETTGVKSMVLGRFLSQIREKLIQRIYRGIEPTLPNWFAVTKTRNGAGGGNKVVDECYIPNYLLPKTQPELQWAWTNMEQYLSACLNLTERKRLVAQHLTHVSQTQEQNKENQNPNSDAPVIRSKTSARYMELVGWLVDKGITSEKQWIQEDQASYISFNAASNSRSQIKAALDNAGKIMSLTKTAPDYLVGQQPVEDISSNRIYKILELNGYDPQYAASVFLGWATKKFGKRNTIWLFGPATTGKTNIAEAIAHTVPFYGCVNWTNENFPFNDCVDKMVIWWEEGKMTAKVVESAKAILGGSKVRVDQKCKSSAQIDPTPVIVTSNTNMCAVIDGNSTTFEHQQPLQDRMFKFELTRRLDHDFGKVTKQEVKDFFRWAKDHVVEVEHEFYVKKGGAKKRPAPSDADISEPKRVRESVAQPSTSDAEASINYADRLARGHSL

Variants of: B1
Settings: with tcp4_human SUB1, P53999

Variant	effect of a mutation on the interaction
MPGFYEIVIKVPSDLDGHLPGISDSFVNWVAEKEWELPPDSDMDLNLIEQAPLTVAEKLQRDFLTEWRRVSKAPEALFFVQFEKGESYFHMHVLVETTGVKSMVLGRFLSQIREKLIQRIYRGIEPTLPNWFAVTKTRNGAGGGNKVVDECYIPNYLLPKTQPELQWAWTNMEQYLSACLNLTERKRLVAQHLTHVSQTQEQNKENQNPNSDAPVIRSKTSARYMELVGWLVDKGITSEKQWIQEDQASYISFNAASNSRSQIKAALDNAGKIMSLTKTAPDYLVGQQPVEDISSNRIYKILELNGYDPQYAASVFLGWATKKFGKRNTIWLFGPATTGHTNIAEAIAHTVPFYGCVNWTNENFPFNDCVDKMVIWWEEGKMTAKVVESAKAILGGSKVRVDQKCKSSAQIDPTPVIVTSNTNMCAVIDGNSTTFEHQQPLQDRMFKFELTRRLDHDFGKVTKQEVKDFFRWAKDHVVEVEHEFYVKKGGAKKRPAPSDADISEPKRVRESVAQPSTSDAEASINYADRLARGHSL [K340H]	disrupting interaction
